No end group written: not given here. *: point of attachment. Biotin = O=C1N[C@H]2[C@H](CS[C@H]2CCCCC(=O)*)N1
Experiments:
[1] = biological target: Envelope protein (SARS-CoV-2) (UniProt P0DTC4); settings: cited from earlier work
[2] = biological target: T1, C-terminal portion of the SARS-CoV-2 Envelope protein, N-terminal biotinylated peptide (SARS-CoV-2); experiment: SPR; Biacore X100; biotinylated E peptide immobilised on streptavidin SA chip (target 1000 RU); PDZ2-f-NPs as analyte, 0.0625-30 uM in equivalents of protein; 25 C; HBS-EP (10 mM Hepes pH 7.4, 0.15 M NaCl, 3 mM EDTA, 0.05% P20); steady-state affinity model / Scatchard plot of maximum amplitudes; settings: both partners purified
T1 construct: also called SARS-CoV-2 E-protein; E-tetradecapeptide
T1 peptide: Biotin-VKNLNSSRVPDLLV

In the case of ZO1 PDZ2 (from UniProt Q07157), the Kd [1] is listed as 2100 nM.

B1: PDZ2-ZO1 functionalized PLGA-PEG-Bis-sulfone nanoparticles (PDZ2 domain of human ZO-1, His-tagged, conjugated to the nanoparticle surface) (domain or fragment)
chain: KVTLVKSRKNEEYGLRLASHIFVKEISQDSLAARDGNIQEGDVVLKINGTVTENMSLTDAKTLIERSKGKLKMVVQRDE
modifications: His-tag chemically linked to the bis-sulfone (PEG-mono-sulfone) moiety of PLGA-PEG nanoparticles
For B1, the Kd [2] was 970 ± 310 nM.

From article PMC11156922, “PDZ2-conjugated-PLGA nanoparticles are tiny heroes in the battle against SARS-CoV-2” (Scientific Reports, 2024)
